Columns and labels:
human CD30 [1] = biological target: T1, human CD30 (human, UniProt P28908 19-595); test: flow cytometry, HDLM-2 cells (HL), average of 3 tests
T1 construct: also called huCD30; TNFRSF8
T1 sequence: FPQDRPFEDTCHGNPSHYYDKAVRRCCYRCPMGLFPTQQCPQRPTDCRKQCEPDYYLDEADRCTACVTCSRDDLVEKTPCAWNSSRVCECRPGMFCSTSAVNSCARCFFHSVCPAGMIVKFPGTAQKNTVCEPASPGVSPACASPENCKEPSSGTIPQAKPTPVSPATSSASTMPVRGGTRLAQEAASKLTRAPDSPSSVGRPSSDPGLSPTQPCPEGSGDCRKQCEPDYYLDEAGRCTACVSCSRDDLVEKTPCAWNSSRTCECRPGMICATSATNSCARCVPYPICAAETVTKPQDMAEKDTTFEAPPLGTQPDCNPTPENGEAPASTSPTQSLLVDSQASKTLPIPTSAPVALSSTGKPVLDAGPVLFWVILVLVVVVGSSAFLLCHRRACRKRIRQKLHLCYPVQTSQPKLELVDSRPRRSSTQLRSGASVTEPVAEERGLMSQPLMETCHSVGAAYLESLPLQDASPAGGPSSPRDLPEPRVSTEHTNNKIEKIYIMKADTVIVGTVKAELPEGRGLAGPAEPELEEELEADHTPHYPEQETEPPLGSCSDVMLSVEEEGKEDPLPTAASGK
Procedure: (§1) Cells (3×10⁴ cells/well) were incubated in polystyrene 96-well round-bottom plates (Greiner bio-one, cat. no. 650180) with serial dilutions of antibodies (range 0.0046 to 10 μg/mL in 3-fold dilution steps) in 50 μL staining buffer at 4° C. for 30 min. After washing twice in staining buffer, cells were incubated with 50 μL secondary antibody at 4° C. for 30 min. […] Next, cells were washed twice in staining buffer, resuspended in 100 μL staining buffer supplemented with TO-PRO-3 iodide (Thermo Fisher Scientific; cat. no. T3605; 1:8000 dilution) and analyzed on a FACSCelesta flow cytometer (BD Biosciences, USA). Live cells were gated based on FSC/SSC and absence of TOPRO-3 staining. Binding curves were analyzed by non-linear regression of log-transformed data (sigmoidal dose-response with variable slope, four parameters) using GraphPad Prism V7.02 software (GraphPad Software, San Diego, CA, USA).

human CD30 [2] = biological target: T1, human CD30; test: flow cytometry, DL-40 cells (ALCL), average of 3 tests
Procedure: as §1

human CD30 [3] = biological target: T1, human CD30; test: flow cytometry, KI-JK cells (ALCL), range of 3 tests
Procedure: as §1

[4] = biological target: T2, cynomolgus monkey (Macaca fascicularis) CD30 (cynomolgus monkey, UniProt P28908 19-595 (human entry)); test: flow cytometry, HEK293 cells transfected with mfCD30
T2 construct: also called mfCD30
T2 chain: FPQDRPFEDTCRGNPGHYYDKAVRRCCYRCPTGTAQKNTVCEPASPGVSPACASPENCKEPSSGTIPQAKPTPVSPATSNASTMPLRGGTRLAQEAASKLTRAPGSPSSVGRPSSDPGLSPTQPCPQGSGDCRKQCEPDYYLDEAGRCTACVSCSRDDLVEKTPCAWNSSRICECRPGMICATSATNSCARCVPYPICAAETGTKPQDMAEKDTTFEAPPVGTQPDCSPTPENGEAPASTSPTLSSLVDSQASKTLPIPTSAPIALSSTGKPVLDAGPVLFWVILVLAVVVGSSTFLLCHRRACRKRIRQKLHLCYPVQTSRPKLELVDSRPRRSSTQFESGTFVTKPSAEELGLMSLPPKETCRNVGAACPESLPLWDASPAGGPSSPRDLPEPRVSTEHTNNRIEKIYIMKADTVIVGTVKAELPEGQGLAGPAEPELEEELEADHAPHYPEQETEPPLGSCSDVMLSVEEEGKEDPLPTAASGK
Procedure: Cells (3×10⁴ cells/well) were incubated in polystyrene 96-well round-bottom plates (Thermo Scientific, cat. no. 163320) with serial dilutions of antibodies (ranging from 0.0002 to 50 μg/mL in 4-fold dilution steps) in 50 μL staining buffer at 4° C. for 30 min. Experiments were performed in technical duplicate. After washing twice in staining buffer, cells were incubated in 50 μL secondary antibody at 4° C. for 30 min. As a secondary antibody, R-PE-conjugated goat-anti-human IgG (Jackson ImmunoResearch, UK; cat. no. 109⁻¹¹⁶-098) diluted 1:200 in staining buffer was used. Cells were washed twice in staining buffer, resuspended in 30 μL staining buffer containing 0.4% EDTA and the ToPro-3 viability marker (Invitrogen, cat. no. T3605) diluted 1:10,000. Cells were analyzed on an iQue Screener (Intellicyt Corporation, USA). Binding curves were analyzed using non-linear regression (sigmoidal dose-response with variable slope) using GraphPad Prism V9.0.0 software (GraphPad Software, San Diego, CA, USA).

human CD30 [5] = biological target: T1, human CD30; test: flow cytometry, KARPAS-299 cells (ALCL), range of 2 tests
Procedure: as §1

human CD30 [6] = biological target: T1, human CD30; test: flow cytometry, DEL cells (ALCL), range of 3 tests
Procedure: as §1

B1: bsG1-huCD3-FEALxCD30-MDX060-FERR (bispecific antibody, human IgG1, kappa, lambda)
heavy 1: not shown
light 1: not shown
heavy 2: QVQLQQWGAGLLKPSETLSLTCAVYGGSFSAYYWSWIRQPPGKGLEWIGDINHGGGTNYNPSLKSRVTISVDTSKNQFSLKLNSVTAADTAVYYCASLTAYWGQGSLVTVSSASTKGPSVFPLAPSSKSTSGGTAALGCLVKDYFPEPVTVSWNSGALTSGVHTFPAVLQSSGLYSLSSVVTVPSSSLGTQTYICNVNHKPSNTKVDKRVEPKSCDKTHTCPPCPAPEFERGPSVFLFPPKPKDTLMISRTPEVTCVVVDVSHEDPEVKFNWYVDGVEVHNAKTKPREEQYNSTYRVVSVLTVLHQDWLNGKEYKCKVSNKALPAPIEKTISKAKGQPREPQVYTLPPSREEMTKNQVSLTCLVKGFYPSDIAVEWESNGQPENNYKTTPPVLDSDGSFFLYSRLTVDKSRWQQGNVFSCSVMHEALHNHYTQKSLSLSPG
light 2: DIQMTQSPTSLSASVGDRVTITCRASQGISSWLTWYQQKPEKAPKSLIYAASSLQSGVPSRFSGSGSGTDFTLTISSLQPEDFATYYCQQYDSYPITFGQGTRLEIKRTVAAPSVFIFPPSDEQLKSGTASVVCLLNNFYPREAKVQWKVDNALQSGNSQESVTEQDSKDSTYSLSSTLTLSKADYEKHKVYACEVTHQGLSSPVTKSFNRGEC
notes: Bispecific IgG1 made by controlled Fab-arm exchange; also called bsIgG1-huCD3-FEALxCD30-MDX060-FERR; bsG1-huCD3×CD30-MDX060
With B1 the EC50 (human CD30 [1]) was 0.167 µg/mL, the EC50 (human CD30 [2]) was 0.236 µg/mL and the EC50 (human CD30 [3]) was 0.143 to 0.258 µg/mL. For the same binder, the binding result [4] was “binds”, the EC50 (human CD30 [5]) was 0.134 to 0.269 µg/mL and the EC50 (human CD30 [6]) was 0.143 to 0.267 µg/mL.
